Assay results taken from publication PMC9398005 (2021).

What was measured:
Test in all cases: ITC
[1] = target: mouse Rbpj (53-474) K195E (mouse, UniProt P31266 53-474, K195E)
mouse Rbpj (53-474) WT = mouse Rbpj (53-474) WT (mouse, UniProt P31266 53-474)
[2] = target: Drosophila Su(H) (98-523) K132M (Drosophila, UniProt P28159 98-523, K132M | R155T)
[3] = target: Drosophila Su(H) (98-523) E137V (Drosophila, UniProt P28159 98-523, E137V | R155T)
Drosophila Su(H) (98-523) E137V, sequence (P28159 98-523 E137V/R155T/N281G): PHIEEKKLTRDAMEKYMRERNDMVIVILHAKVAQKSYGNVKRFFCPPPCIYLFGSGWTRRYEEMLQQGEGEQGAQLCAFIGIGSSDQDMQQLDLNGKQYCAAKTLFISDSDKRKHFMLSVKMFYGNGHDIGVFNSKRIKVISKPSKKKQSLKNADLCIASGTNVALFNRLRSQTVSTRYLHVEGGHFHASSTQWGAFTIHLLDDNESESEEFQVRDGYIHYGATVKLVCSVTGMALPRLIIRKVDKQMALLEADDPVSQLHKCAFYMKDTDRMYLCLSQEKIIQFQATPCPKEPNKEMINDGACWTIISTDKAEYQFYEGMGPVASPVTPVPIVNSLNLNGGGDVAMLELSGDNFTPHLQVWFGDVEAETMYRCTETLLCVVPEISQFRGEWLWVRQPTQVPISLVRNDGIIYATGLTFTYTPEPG

mouse Rbpj (53-474) WT, sequence (P31266 53-474): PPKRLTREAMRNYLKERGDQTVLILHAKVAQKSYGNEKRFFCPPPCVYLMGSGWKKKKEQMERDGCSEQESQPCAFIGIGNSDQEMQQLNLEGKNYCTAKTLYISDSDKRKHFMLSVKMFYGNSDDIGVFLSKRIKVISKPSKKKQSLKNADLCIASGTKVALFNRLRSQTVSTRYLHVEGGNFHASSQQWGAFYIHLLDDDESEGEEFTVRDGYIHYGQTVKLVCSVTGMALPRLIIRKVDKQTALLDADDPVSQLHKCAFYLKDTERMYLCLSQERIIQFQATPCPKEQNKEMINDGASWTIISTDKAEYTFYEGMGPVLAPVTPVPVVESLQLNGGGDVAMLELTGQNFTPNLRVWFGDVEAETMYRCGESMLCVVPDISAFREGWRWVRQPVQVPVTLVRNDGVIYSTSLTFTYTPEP
mouse Rbpj (53-474) K195E, sequence (P31266 53-474 K195E): as the sequence (P31266 53-474) above, with K143E counted along it
Drosophila Su(H) (98-523) K132M, sequence (P28159 98-523 K132M/R155T/N281G): as the sequence (P28159 98-523 E137V/R155T/N281G) above, with K35M, V40E counted along it

B1: Notch1 RAM peptide (human Notch1 residues 1754-1781) (peptide)
peptide: VLLSRKRRRQHGQLWFPEGFKVSEASKK
Kd [1]: 22 nM

B2: SHARP residues 2776-2833 (domain or fragment)
chain: RASANENSRFHPGSMPVIDDRPADAGSGAGLRVNTSEGVVLLSYSGQKTEGPQRISAK
Kd (mouse Rbpj (53-474) WT): 4 nM

B3: Drosophila Notch RAM peptide (residues 1763-1790) (peptide)
peptide: VLSTQRKRAHGVTWFPEGFRAPAAVMSR
Kd [2]: 107 nM | Kd [3]: 166 nM
